# Paper PMC2926940 (Nature structural & molecular biology, 2010)
# T1: Abl SH2 domain, His-tagged (immobilised for SPR) (human, UniProt P00519-2)
# T1 sequence: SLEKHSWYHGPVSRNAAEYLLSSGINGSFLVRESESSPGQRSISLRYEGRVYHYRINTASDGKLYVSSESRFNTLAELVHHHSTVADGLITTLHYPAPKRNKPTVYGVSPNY
# Legend:
# [1] = target: Abl SH2 domain spotted on the SH2 microarray (human); assay: peptide or protein array
# [2] = target: Abl2 (Arg) SH2 domain spotted on the SH2 microarray (UniProt P42684); assay: peptide or protein array
# Abl2 (Arg) SH2 domain spotted on the SH2 microarray, sequence (P42684 173-263): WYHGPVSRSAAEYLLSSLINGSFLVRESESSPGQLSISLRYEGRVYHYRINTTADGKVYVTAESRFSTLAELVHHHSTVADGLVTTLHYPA
# [3] = target: Blk SH2 domain spotted on the SH2 microarray (UniProt P51451); assay: peptide or protein array
# Blk SH2 domain spotted on the SH2 microarray, sequence (P51451 124-220): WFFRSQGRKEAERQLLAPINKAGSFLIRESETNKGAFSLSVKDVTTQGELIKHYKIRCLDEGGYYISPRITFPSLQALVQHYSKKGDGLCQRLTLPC
# [4] = target: Grb7 SH2 spotted on the SH2 microarray (UniProt Q14451); assay: peptide or protein array
# Grb7 SH2 spotted on the SH2 microarray, sequence (Q14451 431-527): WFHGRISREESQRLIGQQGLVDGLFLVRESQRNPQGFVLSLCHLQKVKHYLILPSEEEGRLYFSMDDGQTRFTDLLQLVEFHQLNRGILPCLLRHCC
# [5] = target: tandem SH2 domains of Syk spotted on the SH2 microarray; assay: peptide or protein array
# [6] = target: Abl SH2 domain, His-tagged (immobilised for SPR) (human) (UniProt P00519); assay: SPR
# [7] = target: c-Jun phosphopeptide (Homo sapiens) (UniProt P05412); details: cited from earlier work
# c-Jun phosphopeptide (Homo sapiens), sequence (P05412 whole entry, the tested form may be a part): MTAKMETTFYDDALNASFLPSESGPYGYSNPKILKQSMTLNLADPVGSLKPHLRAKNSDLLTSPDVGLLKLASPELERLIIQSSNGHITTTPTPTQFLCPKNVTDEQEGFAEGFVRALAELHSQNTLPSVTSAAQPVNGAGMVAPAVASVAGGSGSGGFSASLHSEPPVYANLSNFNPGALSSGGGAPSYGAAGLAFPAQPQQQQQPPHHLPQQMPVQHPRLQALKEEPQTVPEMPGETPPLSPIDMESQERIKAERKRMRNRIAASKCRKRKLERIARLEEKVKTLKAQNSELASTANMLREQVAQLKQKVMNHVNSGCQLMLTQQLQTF
# [8] = target: T1, Abl SH2 domain, His-tagged (immobilised …); assay: SPR
Molecule,ΔΔG of binding against HA4 [6] [kcal/mol],ΔΔG of binding against HA4 [8] [kcal/mol],further results
monobody HA4 labelled with DyLight 800 (designed binder),,,Kd [1]: 22 nM; Kd [2]: 18 nM; Kd [3]: 109 nM; Kd [4]: 169 nM; Kd [5]: 28 nM
monobody HA4 (designed binder),,,Kd [6]: 7 nM
HA4 Y35A (designed binder),0.8,,
Abl SH2 (from UniProt P00519),,,Kd [7]: 7000 nM
HA4 W80A (designed binder) GSSVSSVPTKLEVVAATPTSLLISWDAPMSSSSVYYYRITYGETGGNSPVQEFTVPYSSSTATISGLSPGVDYTITVYAAGEDSAGYMFMYSPISINYRTC,,≥ 3.8,

# More lines, main results first:
ΔΔG of binding against HA4 [6] [kcal/mol],ΔΔG of binding against HA4 [8] [kcal/mol],Molecule,further results
2.4,,HA4 E52A (designed binder),
2.2,,HA4 R38A (designed binder),
,≥ 3.8,HA4 Y36A (designed binder) GSSVSSVPTKLEVVAATPTSLLISWDAPMSSSSVYAYRITYGETGGNSPVQEFTVPYSSSTATISGLSPGVDYTITVYAWGEDSAGYMFMYSPISINYRTC,
,≥ 3.8,HA4_(Y87A) (designed binder) GSSVSSVPTKLEVVAATPTSLLISWDAPMSSSSVYYYRITYGETGGNSPVQEFTVPYSSSTATISGLSPGVDYTITVYAWGEDSAGAMFMYSPISINYRTC,
,≥ 3.8,HA4 M88A (designed binder) GSSVSSVPTKLEVVAATPTSLLISWDAPMSSSSVYYYRITYGETGGNSPVQEFTVPYSSSTATISGLSPGVDYTITVYAWGEDSAGYAFMYSPISINYRTC,
